# Test results: PMC6462090
# Assays:
# [1] = target: USP9X catalytic domain C1727A (human) (UniProt Q93008)
# [2] = target: USP9X catalytic domain H1729A (human) (UniProt Q93008)
substance,measurement,setting,value
Ub-AMC (from UniProt P0CG48 1-76),"Km for hydrolysis of Ub-AMC, fold increase against WT",[1],5 fold
same,"Km for hydrolysis of Ub-AMC, fold increase against WT",[2],7 fold
